Data taken from article PMC11059408, “Atypical heat shock transcription factor HSF5 is critical for male meiotic prophase under non-stress conditions” (Nature Communications, 2023).

How the values were obtained:
[1] = target: the molecule itself; experiment: SEC-MALS; after heat treatment at 42 °C for 30 min; 100 μL of MBP-full length HSF5 (12.6 μM) or HSF5-DBD (26.6 μM) injected; PROTEIN KW-803 column; 25 mM HEPES/KOH pH 7.2, 150 mM KCl
[2] = target: T1, HSF5 N-terminal protein (HSF5-DBD) (Mus musculus, UniProt Q5ND04 1-209); experiment: EMSA; 0.04 pmol probe, protein/DNA molar ratio 15.6-250; three shifted bands; 20 mM Tris-HCl pH 8.0, 100 mM NaCl, 2 mM MgCl2, 10 ul, 25 C, 10 min; 8% polyacrylamide gel in Tris-borate pH 8.3, 2 mM EDTA; conditions: protein: recombinant; tags: His (pET19b, E. coli; Ni-NTA purified); label: 32P (Klenow, [a-32P]dCTP); 5' overhang 3 nt (AGG) on both strands before Klenow labelling
T1 sequence: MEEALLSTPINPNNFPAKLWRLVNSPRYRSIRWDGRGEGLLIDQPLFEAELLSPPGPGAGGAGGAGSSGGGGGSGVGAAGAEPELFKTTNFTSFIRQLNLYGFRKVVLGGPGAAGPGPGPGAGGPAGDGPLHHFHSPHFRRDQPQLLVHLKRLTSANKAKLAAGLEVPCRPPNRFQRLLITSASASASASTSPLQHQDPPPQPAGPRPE

[3] = target: T1, HSF5 N-terminal protein (HSF5-DBD); experiment: EMSA; 0.04 pmol probe, protein/DNA molar ratio 15.6-250; shifts completely abolished; 20 mM Tris-HCl pH 8.0, 100 mM NaCl, 2 mM MgCl2, 10 ul, 25 C, 10 min; 8% polyacrylamide gel in Tris-borate pH 8.3, 2 mM EDTA; conditions: protein: recombinant; tags: His (pET19b, E. coli; Ni-NTA purified); label: 32P (Klenow, [a-32P]dCTP); 5' overhang 3 nt (AGG) on both strands before Klenow labelling
[4] = target: T1, HSF5 N-terminal protein (HSF5-DBD); experiment: competition; 1 uM protein, 0.04 pmol labeled T probe, 1-125 fold excess competitor; 20 mM Tris-HCl pH 8.0, 100 mM NaCl, 2 mM MgCl2, 10 ul, 25 C, 10 min; 8% polyacrylamide gel in Tris-borate pH 8.3, 2 mM EDTA; conditions: protein: recombinant; tags: His (pET19b, E. coli; Ni-NTA purified); 5' overhang 3 nt (AGG) on both strands
[5] = target: T1, HSF5 N-terminal protein (HSF5-DBD); experiment: competition; 1 uM protein, 0.04 pmol labeled T probe, 1-125 fold excess competitor; did not compete; 20 mM Tris-HCl pH 8.0, 100 mM NaCl, 2 mM MgCl2, 10 ul, 25 C, 10 min; 8% polyacrylamide gel in Tris-borate pH 8.3, 2 mM EDTA; conditions: protein: recombinant; tags: His (pET19b, E. coli; Ni-NTA purified); 5' overhang 3 nt (AGG) on both strands

B1: His-MBP-fused full-length HSF5 protein (natural protein, mouse, UniProt Q5ND04 1-624, looked up)
chain: MEEALLSTPINPNNFPAKLWRLVNSPRYRSIRWDGRGEGLLIDQPLFEAELLSPPGPGAGGAGGAGSSGGGGGSGVGAAGAEPELFKTTNFTSFIRQLNLYGFRKVVLGGPGAAGPGPGPGAGGPAGDGPLHHFHSPHFRRDQPQLLVHLKRLTSANKAKLAAGLEVPCRPPNRFQRLLITSASASASASTSPLQHQDPPPQPAGPRPEQHGPVAVGQFHRSFRRDNLSPYSYVSTSSHNHSAFPLKGLDRTPIPPRTWQNSLGMHPGQVETSPTFSDKGVPFPVLQRFPTEVTYTLQPSATSVHVQQGPQTMVSSSQKYSNYTPSAQYSQAYYPTAVLQCCSPPTHMDALSSCVTPTASSYAHCNYFQNPPMQSSYPVEFLPSNWPCSATDENKKTEVNLEAVFQIVDELHSSPKLEMVKVEPVETQCPSSQANRGQHILPNANSSNPSSTSQASQLEPLTPVGSDITSFVVGTEQAITCSLPQSPEYIYTIHTAQPLENSTMQESATIQQTHVKLKEQLNHNPSPSSVVFVQEGLPFSTPQVDSSIKCQTNPSENILPSEQMGFLISEMGPANKSTKDTGLSTPARYRERRSNSQGKSPDLHLLVDVACKQEHFPKEEELKE
notes: Heat shock transcription factor 5 (HSF5), mouse, full length; A tobacco etch virus protease cleavage site lies between His6-MBP and HSF5; the fusion was not cleaved for SEC-MALS; also called MBP-full length HSF5; His-MBP-full length HSF5; source: pMAL-c6T construct, purified (HisTrap HP, gel filtration on Superdex 200 pg 16/600); not shown: His6, N-terminal, kept; MBP, N-terminal, kept
binding result [1]: binds

B2: HSF5-EMSA target (T) probe (dsDNA)
DNA 1: AGGGCATAGATATGGAACTCTCTTAGAACTCTCTTAGAACTTACTACTG
DNA 2: AGGCAGTAGTAAGTTCTAAGAGAGTTCTAAGAGAGTTCCATATCTATGC
binding result [2]: binds

B3: HSF5-EMSA mutant (M) probe (dsDNA)
DNA 1: AGGGCATAGATAACCTTGAGTCTATCTTGAGTCTATCTTGAAACTACTG
DNA 2: AGGCAGTAGTTTCAAGATAGACTCAAGATAGACTCAAGGTTATCTATGC
binding result [3]: no binding

B4: unlabeled target (T) competitor (dsDNA)
DNA 1: B2 DNA 1
DNA 2: B2 DNA 2
binding result [4]: binds

B5: unlabeled mutant (M) competitor (dsDNA)
DNA 1: B3 DNA 1
DNA 2: B3 DNA 2
binding result [5]: no binding
